Test results reported in article PMC8691596.
Several values for one entry are separate records, joined by “and”; a condition that tells them apart may be missing. Identical values can stand only once. Like-named read-outs stand apart in the source and are kept apart here.

How the values were obtained:
[1] = target: rat FcγRI (CD64), histidine-tagged recombinant (rat); assay: SPR; His-tagged Fc receptor captured by anti-histidine antibody immobilised on CM5; antibody injected at 100 μg/mL for 1 min; response about 5 s before end of injection, blank subtracted; 25°C, HBS-EP+; Biacore T200
[2] = target: mouse FcγRI (CD64), histidine-tagged recombinant (mouse) (UniProt P26151); assay: as above
[3] = target: human FcγRIIb (CD32b), histidine-tagged recombinant (human) (UniProt P31994); assay: as above
[4] = target: human FcγRIIIb (CD16b) NA2 allele, histidine-tagged recombinant (human) (UniProt O75015); assay: as above
[5] = target: human FcγRI (CD64), histidine-tagged recombinant (human) (UniProt P12314); assay: as above
[6] = target: human FcγRIIIa (CD16a) F158 allele, histidine-tagged recombinant (human) (UniProt P08637); assay: as above
[7] = target: human FcγRIIa (CD32a) R131 allele, histidine-tagged recombinant (human) (UniProt P12318); assay: as above
[8] = target: human FcγRIIIa (CD16a) V158 allele, histidine-tagged recombinant (human) (UniProt P08637); assay: as above
[9] = target: human FcγRIIb (CD32b), histidine-tagged recombinant (human) (UniProt P31994)
[10] = target: human FcγRIIIa (CD16a) V158 allele, histidine-tagged recombinant (human) (UniProt P08637)
[11] = target: human FcγRI (CD64), histidine-tagged recombinant (human) (UniProt P12314); assay: SPR; His-tagged Fc receptor captured by anti-histidine antibody immobilised on CM5; antibody injected at 100 μg/mL for 1 min; response about 5 s before end of injection, blank subtracted; 25°C, HBS-EP+; Biacore T200; remark: listed apart in the source
[12] = target: human FcγRI (CD64), histidine-tagged recombinant (human) (UniProt P12314)
[13] = target: human FcRn, histidine-tagged recombinant (human) (UniProt P55899); assay: SPR; human FcRn immobilised directly on CM5 (EDC/NHS); antibody injected at 20 μg/mL (dose response in Fig 4); HBS-EP+ pH 6.0, 25°C; response normalised to wild type
Chain of human FcRn, histidine-tagged recombinant (human) (P55899 24-297, chain 1 of 2): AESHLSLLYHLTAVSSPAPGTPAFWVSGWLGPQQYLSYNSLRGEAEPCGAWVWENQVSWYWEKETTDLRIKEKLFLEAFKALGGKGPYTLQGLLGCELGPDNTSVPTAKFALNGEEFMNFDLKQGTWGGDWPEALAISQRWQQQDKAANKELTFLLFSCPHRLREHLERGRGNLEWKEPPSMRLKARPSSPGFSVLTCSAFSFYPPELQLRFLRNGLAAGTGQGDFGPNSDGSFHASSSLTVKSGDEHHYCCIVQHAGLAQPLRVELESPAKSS
Chain of human FcRn, histidine-tagged recombinant (human) (P61769 21-119, chain 2 of 2, further chain): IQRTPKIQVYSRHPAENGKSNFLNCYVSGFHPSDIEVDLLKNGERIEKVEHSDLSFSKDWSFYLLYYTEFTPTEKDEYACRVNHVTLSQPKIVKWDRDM

Chain of human FcγRIIb (CD32b), histidine-tagged recombinant (human) (P31994 43-217): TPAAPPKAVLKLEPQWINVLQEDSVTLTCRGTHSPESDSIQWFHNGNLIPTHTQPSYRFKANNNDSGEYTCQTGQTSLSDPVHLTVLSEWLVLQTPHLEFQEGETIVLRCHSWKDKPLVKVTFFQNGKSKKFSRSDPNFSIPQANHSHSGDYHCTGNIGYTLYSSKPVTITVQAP
Chain of human FcγRI (CD64), histidine-tagged recombinant (human) (P12314 16-292): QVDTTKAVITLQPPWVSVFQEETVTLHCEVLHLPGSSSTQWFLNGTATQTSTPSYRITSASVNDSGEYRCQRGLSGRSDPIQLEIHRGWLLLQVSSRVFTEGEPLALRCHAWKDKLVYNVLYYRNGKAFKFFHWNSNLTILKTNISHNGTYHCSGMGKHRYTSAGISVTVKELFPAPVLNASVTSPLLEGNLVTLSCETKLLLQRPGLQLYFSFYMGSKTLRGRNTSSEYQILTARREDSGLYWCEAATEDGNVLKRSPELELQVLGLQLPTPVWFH
Chain of mouse FcγRI (CD64), histidine-tagged recombinant (mouse) (P26151 25-297): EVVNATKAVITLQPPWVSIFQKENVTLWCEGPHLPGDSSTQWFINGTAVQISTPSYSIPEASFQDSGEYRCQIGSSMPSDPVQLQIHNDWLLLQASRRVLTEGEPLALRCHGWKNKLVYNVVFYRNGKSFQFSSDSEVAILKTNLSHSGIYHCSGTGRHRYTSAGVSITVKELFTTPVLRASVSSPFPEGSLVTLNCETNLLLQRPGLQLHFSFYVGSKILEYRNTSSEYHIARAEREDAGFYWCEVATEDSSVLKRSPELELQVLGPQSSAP
Chain of human FcγRIIa (CD32a) R131 allele, histidine-tagged recombinant (human) (P12318 34-217): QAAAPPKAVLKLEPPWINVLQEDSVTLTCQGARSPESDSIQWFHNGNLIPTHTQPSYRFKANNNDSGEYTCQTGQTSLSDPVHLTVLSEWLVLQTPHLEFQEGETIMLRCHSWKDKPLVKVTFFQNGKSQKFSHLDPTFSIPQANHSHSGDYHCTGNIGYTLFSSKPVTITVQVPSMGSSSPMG
Chain of human FcγRIIIa (CD16a) V158 allele, histidine-tagged recombinant (human) (P08637 17-208): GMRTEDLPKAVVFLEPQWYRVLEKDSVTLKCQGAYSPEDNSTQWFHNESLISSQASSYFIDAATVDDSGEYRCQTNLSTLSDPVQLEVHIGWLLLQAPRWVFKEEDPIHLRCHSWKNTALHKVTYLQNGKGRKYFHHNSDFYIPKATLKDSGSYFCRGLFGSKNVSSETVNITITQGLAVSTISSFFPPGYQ
Chain of human FcγRIIIa (CD16a) F158 allele, histidine-tagged recombinant (human) (P08637 17-208): as above
Chain of human FcγRIIIb (CD16b) NA2 allele, histidine-tagged recombinant (human) (O75015 17-200): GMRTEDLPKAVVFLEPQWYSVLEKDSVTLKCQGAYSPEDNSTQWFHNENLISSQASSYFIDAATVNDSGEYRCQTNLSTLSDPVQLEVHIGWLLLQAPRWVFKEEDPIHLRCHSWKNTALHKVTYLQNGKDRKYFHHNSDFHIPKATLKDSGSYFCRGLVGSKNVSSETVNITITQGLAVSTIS

Row | Substance | mean response [1] [RU] | mean response [2] [RU] | mean response [3] [RU] | mean response [4] [RU] | mean response [5] [RU] | mean response [6] [RU] | mean response [7] [RU] | mean response [8] [RU] | Mean normalised luminescence (% of wild-type reference); Promega Fc effector bioassay, Jurkat NFAT-luciferase cells with the receptor + Raji cells, antibody 10 μg/mL [9] [%] | Mean normalised luminescence (% of wild-type reference); Promega Fc effector bioassay, Jurkat NFAT-luciferase cells with the receptor + Raji cells, antibody 10 μg/mL [10] [%] | mean response [11] [RU] | Mean normalised luminescence (% of wild-type reference); Promega Fc effector bioassay, Jurkat NFAT-luciferase cells with the receptor + Raji cells, antibody 10 μg/mL [12] [%] | response [11] | mean normalised binding response (% of wild-type reference) [13] [%]
1 | anti-CD3 IgG1 L234A/L235A (LALA) (antibody) | -4.9 | -3.3 | – | – | – | – | – | – | – | – | – | – | – | –
2 | anti-CD3 IgG1 L234A/L235A/P329G (LALAPG) (antibody) | -5.2 | -6.2 | – | – | – | – | – | – | – | – | – | – | – | –
3 | anti-CD3 IgG1 L234G/L235S/G236R (antibody) | -4.2 | -5.9 | -5.1 | -6.4 | -5.2 | -4.7 | -4.8 | -14.4 | – | – | – | – | – | –
4 | anti-CD3 IgG1 L234S/L235T/G236R (antibody) | -5.1 | -7.5 | 3.9 | 4.7 | -5.2 | 3.3 | 1.4 | -11.3 | – | – | – | – | – | –
5 | anti-CD3 IgG1 L234S/L235V/G236R (antibody) | -4.8 | -8.1 | -4.2 | -4.8 | -5.4 | -3.4 | -3.4 | -12.7 | – | – | – | – | – | –
6 | anti-CD3 IgG1 L234T/L235Q/G236R (antibody) | -2.4 | -5.8 | -2.8 | -3 | -3.2 | -0.9 | -0.2 | -10.7 | – | – | – | – | – | –
7 | anti-CD3 IgG1 L234T/L235T/G236R (antibody) | -3.5 | -5.5 | -3.3 | -4.4 | -3.1 | -2 | -2.8 | -8.6 | – | – | – | – | – | –
8 | anti-CD20 IgG1 L234A/L235A (LALA) (antibody) | -5.3 | -12.2 | – | – | – | – | – | – | 40.6 | – | – | – | – | –
9 | anti-CD20 IgG1 L234A/L235A/P329G (LALAPG) (antibody) | 0.7 | 2.4 | – | – | – | – | – | – | 1.7 | 2.1 | – | – | – | –
10 | anti-CD20 IgG1 L234G/L235S/G236R (antibody) | -3.9 | -2.1 | -0.1 | -1.6 | -1.5 | 1 | 2.1 | 1 | 1.7 | 2.5 | 1.9 | – | – | –
11 | anti-CD20 IgG1 L234S/L235T/G236R (antibody) | -2.4 | -5.4 | 0.5 | -3 | -1.3 | 1.9 | 2.6 | -6.3 | – | – | – | – | – | –
12 | anti-CD20 IgG1 L234S/L235V/G236R (antibody) | -0.4 | 0.1 | -0.8 | 0.6 | -1.6 | 0 | 0.3 | 0.8 | 1.7 | 2.1 | 2.4 | 1.9 | 2.1 RU and 4.3 RU | –
13 | anti-CD20 IgG1 L234T/L235Q/G236R (antibody) | -2.5 | -4.1 | -1.1 | -1.5 | -1.9 | -0.5 | 0.2 | -4 | 1.7 | 2.1 | 3 | 1.9 | 4.5 RU | –
14 | anti-CD20 IgG1 L234T/L235T/G236R (antibody) | -0.8 | – | 0.6 | -0.1 | -2.7 | 1.6 | 1.9 | -0.2 | 1.9 | – | – | 1.9 | – | –
15 | anti-CD20 IgG1 N297Q (aglycosyl) (antibody) | – | – | – | – | – | – | – | – | 1.6 | – | – | – | – | –
16 | anti-CD52 IgG1 L234A/L235A (LALA) (antibody) | -0.7 | 1.8 | – | – | 452 | – | – | – | – | – | – | – | – | 105
17 | anti-CD52 IgG1 L234A/L235A/P329G (LALAPG) (antibody) | -0.8 | -2.1 | – | – | 33.7 | – | – | – | – | – | – | – | – | 105
18 | anti-CD52 IgG1 L234G/L235S/G236R (antibody) | -1.7 | -2.3 | -5.5 | -4.8 | -3.5 | -4.2 | -3.5 | -2.4 | – | – | – | – | – | 118
19 | anti-CD52 IgG1 L234S/L235T/G236R (antibody) | -2.9 | -4.6 | -4.4 | -4.3 | -5.1 | -3.3 | -3.1 | -5.6 | – | – | – | – | – | 116
20 | anti-CD52 IgG1 L234S/L235V/G236R (antibody) | -2.1 | -2.5 | 2.4 | 2.6 | -20.3 | 2.2 | -4.2 | -1.3 | – | – | – | – | – | 119
21 | anti-CD52 IgG1 L234T/L235Q/G236R (antibody) | 0.5 | -1.4 | 1.3 | 0.4 | -10.6 | 0.7 | -2.2 | -3.1 | – | – | – | – | – | 115
22 | anti-CD52 IgG1 L234T/L235T/G236R (antibody) | -3.4 | -3.9 | -0.1 | 0.8 | -20.7 | -1.9 | -8.7 | -2 | – | – | – | – | – | 118
23 | anti-CD52 IgG1 N297Q (aglycosyl) (antibody) | – | 50.4 | – | – | 431 | – | – | – | – | – | – | – | – | 103
